Source: the supplement of paper PMC6757056
± gives the standard deviation of the averaged measurements.

B1: library; a variant is named by its letters at N, in order (parent)
chain: GCUGUCACCGGUGCUUGGUACGUUAUAUUCAGCCGGUCUGAUGAGUCUNNNNNNAGACGAAACAGC

Assays:
(6R,S)-folinic acid [1] = variants of: B1; assay: FACS-Seq fitted mean relative fluorescence mCherry/BFP without ligand (log10 relative fluorescence); HEK293T overexpressing SLC46A1; higher = higher reporter protein expression; conditions: without (6R,S)-folinic acid; ligand present: no
Outline: (§1)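 HEK293T libraries were lentivirally transduced with an mCherry reporter carrying the ribozyme switch and an EF1α-BFP marker, enriched, and incubated for 48 h with or without ligand before sorting into 6 bins by mCherry/BFP. Genomic DNA from each bin was PCR-amplified, barcoded and sequenced on MiSeq. Fluorescence is the fitted normal mean of the bin counts. The fit used log10(mCherry/BFP), and means were scaled to five spiked-in control ribozymes.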

(6R,S)-folinic acid [2] = variants of: B1; assay: normalized RNA/DNA level without ligand (relative to sTRSVctl = 100) (log10 (% of sTRSVctl)); HEK293T overexpressing SLC46A1; higher = less ribozyme self-cleavage, higher mRNA level; conditions: without (6R,S)-folinic acid; ligand present: no
Outline: (§2)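 Total RNA, extracted with EDTA 72 h after HEK293T cells were transfected with 4 µg per 6-well well of reporter-linked ribozyme switch library plasmids, was reverse-transcribed, amplified, barcoded and sequenced. Ligand, if used, was added 1 h before transfection. RNA level was derived from RNA reads divided by DNA reads and normalized to a spiked-in non-cleaving sequence or to the top sequences. This was multiplied by 100 and log10-transformed, with the top set of 25 sequences and a ≥100 DNA read minimum.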

(6R,S)-folinic acid [3] = variants of: B1; assay: FACS-Seq fitted mean relative fluorescence mCherry/BFP with ligand (log10 relative fluorescence); HEK293T overexpressing SLC46A1; ligand concentration (+) FACS-Seq: 6 mM; higher = higher reporter protein expression; conditions: with (6R,S)-folinic acid; ligand present: yes
Outline: as §1

(6R,S)-folinic acid [4] = variants of: B1; assay: normalized RNA/DNA level with ligand (relative to sTRSVctl = 100) (log10 (% of sTRSVctl)); HEK293T overexpressing SLC46A1; ligand concentration (+) RNA-Seq: 6 mM; higher = less ribozyme self-cleavage, higher mRNA level; conditions: with (6R,S)-folinic acid; ligand present: yes
Outline: as §2

Variant	FACS-Seq fitted mean (log10) ((6R,S)-folinic acid [1])	normalized RNA/DNA level without ligand (log10) ((6R,S)-folinic acid [2])	FACS-Seq fitted mean (log10) ((6R,S)-folinic acid [3])	normalized RNA/DNA level with ligand (log10) ((6R,S)-folinic acid [4])
UGAAUG	0.0422 ± 0.017	1.758 ± 0.0067	0.2668 ± 0.0023	1.98 ± 0.021
GGGACA	0.123 ± 0.064	1.997 ± 0.016	0.248 ± 0.14	2 ± 0.063
GGGACU	0.111 ± 0.0086	2.023 ± 0.011	0.0545 ± 0.19	2.008 ± 0.019
AGCCGU	0.507 ± 0.044	2.018 ± 0.017	0.3424 ± 0.0012	2.0145 ± 0.00041
GGCUUG	0.434 ± 0.019	2.078 ± 0.012	0.292 ± 0.34	2.049 ± 0.018
AGCACU	0.282 ± 0.032	2.02 ± 0.025	0.113 ± 0.16	2 ± 0.028
UGCGCU	0.293 ± 0.033	2.043 ± 0.0054	0.428 ± 0.044	2.04 ± 0.03
UGCUGA	0.285 ± 0.21	2.02 ± 0.024	0.321 ± 0.12	2.05 ± 0.043
UGCUGG	0.145 ± 0.014	1.85 ± 0.025	0.325 ± 0.18	2.02 ± 0.065
AGAGCU	0.596 ± 0.05	2.019 ± 0.006	0.275 ± 0.32	2.01 ± 0.029
AGGAAU	0.338 ± 0.1	1.988 ± 0.016	0.0683 ± 0.36	2 ± 0.029
AGGAAC	0.484 ± 0.041	2 ± 0.012	0.434 ± 0.11	2.018 ± 0.02
UGCUAA	0.427 ± 0.062	1.97 ± 0.026	0.537 ± 0.11	2.018 ± 0.016
UGCUAG	0.312 ± 0.12	1.76 ± 0.028	0.441 ± 0.057	1.972 ± 0.014
UGCUUG	0.46 ± 0.098	1.76 ± 0.018	0.655 ± 0.047	1.96 ± 0.034
UGCAAA	0.549 ± 0.013	1.957 ± 0.0057	0.532 ± 0.037	1.98 ± 0.034
UGCAAU	0.173 ± 0.069	1.841 ± 0.0071	0.456 ± 0.15	1.973 ± 0.016
AGCCUA	0.465 ± 0.015	2.021 ± 0.012	0.612 ± 0.31	2.01 ± 0.021
AGCCUG	0.71 ± 0.23	2.01 ± 0.027	0.405 ± 0.12	2.05 ± 0.051
GGAGGC	-0.315 ± 0.075	1.936 ± 0.0065	-0.531 ± 0.17	2.0118 ± 0.0015
GGAGGU	0.445 ± 0.085	2.02 ± 0.033	0.592 ± 0.05	2.05 ± 0.07
GGGAAG	0.485 ± 0.082	1.955 ± 0.015	0.402 ± 0.061	2.04 ± 0.027
GGAAAC	0.359 ± 0.026	2.021 ± 0.0084	0.243 ± 0.22	2.0107 ± 0.00078
GGAAAA	0.526 ± 0.051	1.983 ± 0.011	0.455 ± 0.15	2.04 ± 0.041

Variant	FACS-Seq fitted mean (log10) ((6R,S)-folinic acid [1])	normalized RNA/DNA level without ligand (log10) ((6R,S)-folinic acid [2])	FACS-Seq fitted mean (log10) ((6R,S)-folinic acid [3])	normalized RNA/DNA level with ligand (log10) ((6R,S)-folinic acid [4])
GGAAAG	0.253 ± 0.061	1.955 ± 0.0027	0.123 ± 0.011	2.02 ± 0.041
UGAAAU	0.196 ± 0.11	1.81 ± 0.027	0.516 ± 0.39	1.97 ± 0.027
UGAAAA	0.648 ± 0.13	1.98 ± 0.021	0.692 ± 0.22	1.992 ± 0.019
UGAAAG	0.184 ± 0.14	1.8081 ± 0.0016	0.436 ± 0.3	1.98 ± 0.031
UGAAAC	0.4232 ± 0.0017	1.946 ± 0.0065	0.578 ± 0.21	2 ± 0.042
CGAGGG	0.504 ± 0.034	1.844 ± 0.0078	0.672 ± 0.22	1.968 ± 0.011
GGACCG	0.438 ± 0.24	2.065 ± 0.0084	0.0255 ± 0.12	2.02 ± 0.031
UGAUGG	0.038 ± 0.0089	1.625 ± 0.0082	0.583 ± 0.093	1.91 ± 0.038
UGAUGU	0.318 ± 0.071	1.93 ± 0.021	0.125 ± 0.22	2.02 ± 0.044
UGAUGA	0.447 ± 0.11	1.865 ± 0.0033	0.525 ± 0.05	2.01 ± 0.047
CGAACC	0.4 ± 0.15	2.059 ± 0.013	0.315 ± 0.15	2.02 ± 0.054
CGAACA	0.317 ± 0.096	1.981 ± 0.0064	0.446 ± 0.21	1.985 ± 0.0071
AGAUAA	0.0208 ± 0.12	1.96 ± 0.006	0.14 ± 0.2	1.981 ± 0.012
UGAGAU	0.457 ± 0.23	1.83 ± 0.043	0.572 ± 0.015	1.98 ± 0.041
UGAGAG	0.384 ± 0.054	1.689 ± 0.012	0.526 ± 0.022	1.92 ± 0.02
UGAGAA	0.5 ± 0.038	1.917 ± 0.011	0.533 ± 0.26	1.98 ± 0.026
CGAGUG	0.389 ± 0.14	1.964 ± 0.0042	0.341 ± 0.17	2.01 ± 0.032
CGAGUU	0.1373 ± 0.00078	1.997 ± 0.012	0.394 ± 0.014	2 ± 0.031
UGACGC	0.28 ± 0.091	2.017 ± 0.0099	0.284 ± 0.026	2.033 ± 0.017
UGACGA	0.311 ± 0.052	1.9519 ± 0.0017	0.493 ± 0.015	2.04 ± 0.014
UGACGG	-0.24 ± 0.039	1.748 ± 0.0057	0.0392 ± 0.065	1.99 ± 0.044
UGCGGG	-0.0146 ± 0.0024	1.788 ± 0.011	0.675 ± 0.21	1.99 ± 0.043
UGCUCU	0.473 ± 0.12	2.056 ± 0.014	0.2 ± 0.019	2.06 ± 0.029
UGCUCG	0.493 ± 0.023	1.84 ± 0.06	0.49 ± 0.049	1.96 ± 0.072

Variant	FACS-Seq fitted mean (log10) ((6R,S)-folinic acid [1])	normalized RNA/DNA level without ligand (log10) ((6R,S)-folinic acid [2])	FACS-Seq fitted mean (log10) ((6R,S)-folinic acid [3])	normalized RNA/DNA level with ligand (log10) ((6R,S)-folinic acid [4])
AGAUGG	0.589 ± 0.0066	1.91 ± 0.0092	0.62 ± 0.25	2.02 ± 0.028
AGAUGA	0.308 ± 0.011	1.9723 ± 0.0012	0.112 ± 0.046	2.02 ± 0.038
AGCAGA	0.0194 ± 0.039	1.98 ± 0.0025	-0.229 ± 0.27	2.02 ± 0.029
UGACUG	0.14 ± 0.2	1.857 ± 0.0074	0.368 ± 0.08	1.99 ± 0.054
UGCAUG	0.298 ± 0.025	1.734 ± 0.0064	0.712 ± 0.11	1.97 ± 0.026
UGCAUU	0.0991 ± 0.29	1.987 ± 0.01	-0.057 ± 0.47	2.01 ± 0.043
AGCUUG	0.529 ± 0.0056	1.964 ± 0.002	0.349 ± 0.32	2.03 ± 0.036
GCUUUA	0.213 ± 0.02	1.99 ± 0.026	0.0416 ± 0.19	1.98 ± 0.05
AGACAG	0.659 ± 0.017	1.941 ± 0.0083	0.854 ± 0.36	2.01 ± 0.026
GGAGAA	0.29 ± 0.13	1.961 ± 0.013	0.201 ± 0.0069	2.01 ± 0.022
GGAGAU	0.0885 ± 0.2	1.959 ± 0.0067	-0.253 ± 0.085	1.99 ± 0.049
GGAGAC	0.571 ± 0.081	2.0007 ± 0.00018	0.512 ± 0.3	2.009 ± 0.0055
UGCGUG	-0.00857 ± 0.093	1.6768 ± 0.0013	0.36 ± 0.1	1.95 ± 0.045
GGACAA	0.352 ± 0.14	1.98 ± 0.0036	0.748 ± 0.25	1.99 ± 0.02
UGAAGG	0.12 ± 0.034	1.645 ± 0.012	0.569 ± 0.24	1.96 ± 0.042
UGAAGA	0.139 ± 0.053	1.877 ± 0.0079	0.513 ± 0.11	1.98 ± 0.027
UGAAGU	0.167 ± 0.1	1.907 ± 0.015	0.347 ± 0.17	2.01 ± 0.036
CGCUGC	0.0944 ± 0.13	2.091 ± 0.012	-0.0623 ± 0.071	2.0496 ± 0.0017
CGAAAA	0.189 ± 0.032	1.955 ± 0.014	0.493 ± 0.17	1.98 ± 0.022
CGAAAG	-0.0838 ± 0.12	1.9719 ± 0.00015	0.0563 ± 0.36	1.98 ± 0.027
GGCAUA	0.173 ± 0.12	2.032 ± 0.012	0.286 ± 0.1	2.01 ± 0.027
UGAGGG	0.114 ± 0.058	1.657 ± 0.016	0.587 ± 0.016	1.95 ± 0.063
UGAGGA	0.309 ± 0.047	1.839 ± 0.0062	0.598 ± 0.2	1.99 ± 0.031
